From article PMC6693180 come the findings set out here.

This assay addresses DTL (UniProt Q9NZJ0). The assay can be described thus: co-IP with His tag antibody. Conditions: reference: His-PDCD4 wild type; sites S67.

For “PDCD4 (from UniProt Q53EL6) His-PDCD4(S67A)”, the “binding against the reference” value is “lost”.
